Positions count from the first letter of the chain named. Names and notes keep the numbering of the source.
B1: Phage clone 31 (scFv)
scFv: QAVLTQPSSLSASPGASASLTCTLRSGINVGTYRIYWYQQKPGSPPQYLLRYKSDSDKQQGSGVPSRFSGSKDASANAGILLISGLQSEDEADYYCMIWHSSAWVFGGGTKLTVLGSRGGGGSGGGGSGGGGSLEMAEVQLVESGGGLVQPGGSLRLSCAASGLTFDRYAMSWVRQAAGKGLERFSAITGDGYYTYYADSVKGRFTISRDNSKNTLYLQMNSLGAEDTAVYYCARLSGIGRSSYDGWGQGTLVTVSS
notes: fusion to the phage coat protein not described
B2: WT H3.1 26-35 peptide (peptide)
peptide: RKSAPATGGV
notes: Free synthetic peptide pulsed onto T2 cells; also called H3.1 26-35 WT peptide
B3: mutant histone K27M-H3.1 26-35 peptide (peptide)
peptide: RMSAPATGGV
notes: Free synthetic peptide pulsed onto T2 cells
B4: mutant histone K27M-H3.3 26-35 peptide (peptide)
peptide: RMSAPSTGGV
notes: as for B3
B5: Phage clone 10 (scFv)
scFv: EIVLTQSPLSLPVTLGQPASISCRSSQSLVYSNGNTYLSWFHQRPGQSPRRLIYKVSKRDSGVPDRFSGSGSGTDFTLKISRVEAEDVGVFYCMQGTYWPYTFGQGTKLEIKRSRGGGGSGGGGSGGGGSLEMAEVQLVQSGAEVKKPGESLKISCKGSGYSFTSYWIGWVRQMPGKGLEWMGIIYPGDSDTRYSPSFQGQVTISADKSISTAYLQWSSLKASDTAMYYCARGFDNWGQGTLVTVSS
notes: as for B1
B6: Phage clone 13 (scFv)
scFv: DVVMTQSPLSLPVTLGQPASISCRSSQSLIYSNGNTYLTWFHQRPGQPPRRLIHKVSNRDSGVPDRFSGSGSGSDFTLKISRVEAEDVGIYYCMQGTHWPPTFGGGTKLEIKRSRGGGGSGGGGSGGGGSLEMAEVQLVQSGAEVKKPGESLKISCKGSGYSFTSYWIGWVRQMPGKGLEWMGIIYPGDSDTRYSPSFQGQVTISADKSISTAYLQWSSLKASDTAMYYCARGYDVWGQGTLVTVSS
notes: as for B1
B7: Phage clone 16 (scFv)
scFv: B6 scFv with V236S
notes: as for B1
B8: Phage clone 5 (scFv)
scFv: B6 scFv with I30V, T39N, P48S, H54Y, K55E, S74T, I90V, V236G
notes: fusion to the phage coat protein not described; also called anti-HMC scFv 5
B9: Phage clone 38 (scFv)
scFv: SYELTQPPSVSVAPGKTARITCGGNNIGSKSVNWYQQKPGQAPVLVIYYDNDRPSGIPERFSGSNSGNTATLTISRVEAGDEADYYCQVWNSSSDHYVFGTGTKVTVLGSRGGGGSGGGGSGGGGSLEMAQMQLVQSGAEVKTTGASVRVSCKASGYTFTDYYLHWVRQAPGQGLEWMGWINPHSGGTNYAQKFQGRVTMTRDTSISTAYMELSSLRSDDTAVYYCAREDYSGSGSSDAWGQGTLVTVSS
notes: as for B1
B10: Phage clone 34 (scFv)
scFv: QSVLTQPPSVSGAPGQRVTISCTGSSLNLGAGYDVHWYQQFPGTAPKLLIFANTNRPSGVPDRFSASKSGTSASLAITGLQAEDEADYFCQSYDNSLSGYVFGTGTKVTVLGSRGGGGSGGGGSGGGGSLEMAQVQLVQSGAEVKKPGSSVKVSCKASGGTFSSYAISWVRQAPGQGLEWMGGIIPIFGTANYAQKFQGRVTITADESTSTAYMELSSLRSEDTAVYYCARSYWTFEYSIDSWGQGTLVTVSS
B11: Phage clone 32 (scFv)
scFv: QSVLTQPPSVSGAPGQRVTISCTGSSSNLGAGYDVHWYQQLPGTAPKVLVYFNNNRPSGVPDRFSGSKSGTSASLAITGLQAEDEADYYCQSYDSSLSASVFGTGTKVTVLGSRGGGGSGGGGSGGGGSLEMAQVQLVESGAEVKKPGASVKVSCKASGYTFTSYTITWVRQAPGQGLEWMGWISPYNGNTNYAQNLQGRVTMTTDTSTTTAYMELRSLTSDDTAVYYCARSWEHGFPYDEWGQGTLVTVSS
B12: Phage clone 35 (scFv)
scFv: SYVLTQPPSASGTPGQRVTISCSGSTFNIGSNTVNWYQQLPATAPKLLIYSNNQRPSGVPDRFSGSKSGTSASLAISGLQSEDAAAYYCAAWDDSLSGHVVFGGGTKLTVLGSRGGGGSGGGGSGGGGSLEMAEVQLVQSGAEVKKPGASVKVSCKASGYTFTSYGISWVRQAPGQGLEWMGWISAYNGNTNYAQKLQGRVTMTTDTSTSTAYMELRSLRSDDTAVYYCARYYESGYPFDWWGQGTLVTVSS
B13: Phage clone 36 (scFv)
scFv: SSELTQDPAVSVALGQTVRITCQGDSLRSYYANWYQQKPGQAPVLVIYAKSNRPSGIADRFSGSSSGNTASLTITGAQAEDEADYYCNSRDSSGNRWVFGGGTKVTVLGSRGGGGSGGGGSGGGGSLEMAEVQLVQSGAEVKKPGASVKVSCKASGYTFTGYYMHWVRQAPGKGLEWMGGFDPEDGETIYAQKFQGRVTMTEDTSTDTAYMELSSLRSEDTAVYYCARSSWWSPVTYYDIWGQGTLVTVSS
notes: as for B1
B14: Phage clone 33 (scFv)
scFv: QSVLTQPPSVSGAPGQRVTIFCTGSSSNIGAGYDVHWYQQLPGTAPKLLIYGNNNRPSGVPDRFSGSKSGTSASLAITGLQAEDEADYYCQSYDTSLTPVFGGGTKLTVLGSRGGGGSGGGGSGGGGSLEMAEVQLVQSGAEVRKPGSSVKVSCKASAGTFNRYSLSWVRQAPGQGLEWVGRIIPIIGVADYAQKFQGRVTITADKSATTAYMELHSLRSEDTAVYYCARQEYSYAMDYWGQGTLVTVSS
notes: as for B1

molecular target: T1, HLA-A*02:01 on T2 cells without peptide loading (human); test: flow cytometry, scFv phage on T2 cells
T1 construct: whole, on cells; TAP-deficient T2 cells with no exogenous peptide

Row | Binder | binding result
1 | B1 | no binding

molecular target: T1, HLA-A*02:01 on T2 cells without peptide …; test: T2 stabilisation assay, BB7.2 staining, flow cytometry

Row | Binder | binding result
2 | B2 | binds
3 | B3 | binds
4 | B4 | binds

molecular target: T1, HLA-A*02:01 on T2 cells without peptide …; test: flow cytometry, scFv phage on T2 cells, anti-M13 + PE anti-mouse IgG

Row | Binder | Median MFI (PE-A) [MFI]
5 | B5 | 686
6 | B1 | 125
7 | B6 | 543
8 | B7 | 1700

molecular target: T2, control peptide mixture P20/HLA-A*02:01 complexes on T2 cells (human); test: as above
T2 construct: whole, on cells; A pool of 20 different peptide/HLA-A*02:01 complexes on one cell population, not a single complex; also called T2-P20

Row | Binder | Median MFI (PE-A) [MFI]
9 | B5 | 2010
10 | B1 | 128
11 | B6 | 1560
12 | B7 | 4190
13 | B8 | 703

molecular target: T3, WT H3.3 26-35 peptide/HLA-A*02:01 complex on T2 cells (human); test: as above
T3 construct: whole, on cells; T2 cells pulsed with the synthetic peptide; also called T2-WT H3.3; T2-WT 3.3

Row | Binder | Median MFI (PE-A) [MFI]
14 | B5 | 849
15 | B1 | 777
16 | B6 | 784
17 | B7 | 2440
18 | B8 | 305

molecular target: T4, WT H3.1 26-35 peptide/HLA-A*02:01 complex on T2 cells (human); test: as above
T4 construct: whole, on cells; T2 cells pulsed with the synthetic peptide; also called T2-WT H3.1; T2-WT 3.1

Row | Binder | Median MFI (PE-A) [MFI]
19 | B5 | 770
20 | B1 | 529
21 | B6 | 761
22 | B7 | 2320
23 | B8 | 320

molecular target: T1, HLA-A*02:01 on T2 cells without peptide …; test: flow cytometry, scFv phage on T2 cells, anti-M13 + labelled anti-mouse IgG

Row | Binder | Median MFI (PE-A) [MFI]
24 | B9 | 66
25 | B10 | 109
26 | B11 | 132
27 | B12 | 125

molecular target: T2, control peptide mixture P20/HLA-A*02:01 …; test: as above

Row | Binder | Median MFI (PE-A) [MFI]
28 | B9 | 128
29 | B10 | 109
30 | B11 | 146
31 | B13 | 11000
32 | B12 | 124
33 | B14 | 2860

molecular target: T3, WT H3.3 26-35 peptide/HLA-A*02:01 …; test: as above

Row | Binder | Median MFI (PE-A) [MFI]
34 | B9 | 32900
35 | B10 | 8340
36 | B11 | 90800
37 | B13 | 33600
38 | B12 | 84200
39 | B14 | 49100

From patent US20190338035A1 (EUREKA THERAPEUTICS, published 2019)
